Laboratory results: PMC8173106, “Modulating Enzyme Function via Dynamic Allostery within Biliverdin Reductase B” (Frontiers in Molecular Biosciences, 2021)
Residue numbers refer to the chain shown, from its start. Names may count otherwise.

B1: human BLVRB (biliverdin reductase B) (Homo sapiens; S111A) (protein)
chain: MAVKKIAIFGATGQTGLTTLAQAVQAGYEVTVLVRDSSRLPSEGPRPAHVVVGDVLQAADVDKTVAGQDAVIVLLGTRNDLSPTTVMSEGARNIVAAMKAHGVDKVVACTAAFLLWDPTKVPPRLQAVTDDHIRMHKVLRESGLKYVAVMPPHIGDQPLTGAYTVTLDGRGPSRVISKHDLGHFMLRCLTTDEYDGHSTYPSHQYQ
notes: full length, 206 residues; codon-optimised, pET21b (T164S in pJ401k); N-terminal 6xHis tag removed with thrombin
B2: human BLVRB (biliverdin reductase B) (Homo sapiens; T164I) (protein)
chain: B1 chain with A111S, T164I
notes: as for B1
B3: human BLVRB (biliverdin reductase B) (Homo sapiens; T164S) (protein)
chain: B1 chain with A111S, T164S
notes: as for B1
B4: human BLVRB (biliverdin reductase B) (Homo sapiens; T164A) (protein)
chain: B1 chain with A111S, T164A
notes: as for B1
B5: human BLVRB (biliverdin reductase B) (Homo sapiens; H153A) (protein)
chain: B1 chain with A111S, H153A
notes: as for B1

Each protein was assayed on Cc1cc2nc3c(=O)[nH]c(=O)nc-3n(C[C@H](O)[C@H](O)[C@H](O)COP(=O)(O)OP(=O)(O)OC[C@H]3O[C@@H](n4cnc5c(N)ncnc54)[C@H](O)[C@@H]3O)c2cc1C (assay: purified protein). Details: co-substrate NADPH.
Assay type: biochemical, Homo sapiens

Protein | Km | kcat
B1 | 325 ± 96 µM | 0.021 ± 0.004 s⁻¹
B2 | 156 ± 18 µM | 0.049 ± 0.003 s⁻¹
B3 | 127 ± 15 µM | 0.039 ± 0.003 s⁻¹
B4 | 153 ± 18 µM | 0.063 ± 0.002 s⁻¹
B5 | 98 ± 11 µM | 0.059 ± 0.003 s⁻¹
